This note sets out measurements from doi:10.1101/2025.11.17.688798, “Engineering directional phosphoryl flow enables programmable signaling dynamics in bacteria” (bioRxiv, 2025).

The chains are these.
B2: Spo0B (enzyme, B. subtilis, UniProt P06535 1-192, looked up)
chain: MKDVSKNQEENISDTALTNELIHLLGHSRHDWMNKLQLIKGNLSLQKYDRVFEMIEEMVIDAKHESKLSNLKTPHLAFDFLTFNWKTHYMTLEYEVLGEIKDLSAYDQKLAKLMRKLFHLFDQAVSRESENHLTVSLQTDHPDRQLILYLDFHGAFADPSAFDDIRQNGYEDVDIMRFEITSHECLIEIGLD
notes: Spo0B, sporulation phosphotransferase of B. subtilis; Two protomers of Spo0B stand in the complex; the Spo0B dimer of PDB 1IXM was the search probe; also called phosphotransferase Spo0B; transferase; source: E. coli BL21 (DE3) pLysS, purified (HisTrap IMAC, TEV cleavage, reverse IMAC, Superdex 75 SEC); not shown: His6, N-terminal, cleaved

For the data set “Spo0B”, the target named is B2. As to the kind of experiment: crystal structure; purified Spo0B and Spo0A-REC mixed at 1:1.1 equivalents with 10 mM MgCl2 in 20 mM Tris-HCl pH 8.0, 0.1 M NaCl; sitting-drop vapour diffusion at 293 K; two crystal forms, 2.1 and 3.5 Å. The conditions noted are these: both partners purified.
Data set [1] deals with the molecule itself. The data set is described as above.

B1: Spo0A-REC (domain or fragment, B. subtilis, UniProt P06534 1-123, looked up)
chain: MEKIKVCVADDNRELVSLLSEYIEGQEDMEVIGVAYNGQECLSLFKEKDPDVLVLDIIMPHLDGLAVLERLRESDLKKQPNVIMLTAFGQEDVTKKAVDLGASYFILKPFDMENLVGHIRQVS
notes: PDB 1QMP (Spo0A receiver domain) was the search probe; also called Spo0A receiver domain; A3; source: E. coli BL21 (DE3) pLysS, purified (HisTrap IMAC, TEV cleavage, reverse IMAC, Superdex 75 SEC); not shown: His6, N-terminal, cleaved
For the molecule B1, the “stoichiometry N” value in the data set with Spo0B was 1 RR per phosphotransferase chain (printed as 2:2).

Regarding B2, in data set [1], the binding result is given as “binds”.
